Measured values as given in the Human Domainome abundance scans (Beltran et al. 2025).
± gives the uncertainty stated by the source.

B1: Segment polarity protein dishevelled homolog DVL-3, residues 2 to 81; numbered along this chain, Q92997 (parent)
chain: GETKIIYHLDGQETPYLVKLPLPAERVTLADFKGVLQRPSYKFFFKSMDDDFGVVKEEISDDNAKLPCFNGRVVSWLVSA

Variants of: B1
Experiment: abundance fitness (aPCA) (normalised: wild type 0, dead -1); higher = more abundant; growth selection in yeast, the domain comes from the species named
Details: Homo sapiens

Variant	abundance fitness
GETKIIYHLDGQETPYLVKLPLPAERVTLKDFKGVLQRPSYKFFFKSMDDDFGVVKEEISDDNAKLPCFNGRVVSWLVSA [A30K]	0.007 ± 0.066
GETKIIYHLDGQETPYLVKLPLPAERVTLRDFKGVLQRPSYKFFFKSMDDDFGVVKEEISDDNAKLPCFNGRVVSWLVSA [A30R]	0.034 ± 0.041
GETKIIYHLDGQETPYLVKLPLPAERVTLHDFKGVLQRPSYKFFFKSMDDDFGVVKEEISDDNAKLPCFNGRVVSWLVSA [A30H]	-0.692 ± 0.19
GETKIIYHLDGQETPYLVKLPLPAERVTLSDFKGVLQRPSYKFFFKSMDDDFGVVKEEISDDNAKLPCFNGRVVSWLVSA [A30S]	-0.261 ± 0.062
GETKIIYHLDGQETPYLVKLPLPAERVTLCDFKGVLQRPSYKFFFKSMDDDFGVVKEEISDDNAKLPCFNGRVVSWLVSA [A30C]	-0.696 ± 0.15
GETKIIYHLDGQETPYLVKLPLPAERVTLGDFKGVLQRPSYKFFFKSMDDDFGVVKEEISDDNAKLPCFNGRVVSWLVSA [A30G]	-0.045 ± 0.046
GETKIIYHLDGQETPYLVKLPLPAERVTLDDFKGVLQRPSYKFFFKSMDDDFGVVKEEISDDNAKLPCFNGRVVSWLVSA [A30D]	-0.967 ± 0.2
GETKIIYHLDGQETPYLVKLPLPAERVTLFDFKGVLQRPSYKFFFKSMDDDFGVVKEEISDDNAKLPCFNGRVVSWLVSA [A30F]	-0.858 ± 0.21
GETKIIYHLDGQETPYLVKLPLPAERVTLTDFKGVLQRPSYKFFFKSMDDDFGVVKEEISDDNAKLPCFNGRVVSWLVSA [A30T]	-0.795 ± 0.15
GETKIIYHLDGQETPYLVKLPLPAERVTLQDFKGVLQRPSYKFFFKSMDDDFGVVKEEISDDNAKLPCFNGRVVSWLVSA [A30Q]	-0.465 ± 0.1
GETKIIYHLDGQETPYLVKLPLPAERVTLWDFKGVLQRPSYKFFFKSMDDDFGVVKEEISDDNAKLPCFNGRVVSWLVSA [A30W]	-0.517 ± 0.09
GETKIIYHLDGQETPYLVKLPLPAERVTLIDFKGVLQRPSYKFFFKSMDDDFGVVKEEISDDNAKLPCFNGRVVSWLVSA [A30I]	-0.82 ± 0.21
GETKIIYHLDGQETPYLVKLPLPAERVTLYDFKGVLQRPSYKFFFKSMDDDFGVVKEEISDDNAKLPCFNGRVVSWLVSA [A30Y]	-0.468 ± 0.16
GETKIIYHLDGQETPYLVKLPLPAERVTLMDFKGVLQRPSYKFFFKSMDDDFGVVKEEISDDNAKLPCFNGRVVSWLVSA [A30M]	-0.479 ± 0.1
GETKIIYHLDGQETPYLVKLPLPAERVTLNDFKGVLQRPSYKFFFKSMDDDFGVVKEEISDDNAKLPCFNGRVVSWLVSA [A30N]	-0.433 ± 0.19
GETKIIYHLDGQETPYLVKLPLPAERVTLVDFKGVLQRPSYKFFFKSMDDDFGVVKEEISDDNAKLPCFNGRVVSWLVSA [A30V]	-0.742 ± 0.098
GETKIIYHLDGQETPYLVKLPLPAERVTLLDFKGVLQRPSYKFFFKSMDDDFGVVKEEISDDNAKLPCFNGRVVSWLVSA [A30L]	-0.562 ± 0.08
GETKIIYHLDGQETPYLVKLPLPAERVTLEDFKGVLQRPSYKFFFKSMDDDFGVVKEEISDDNAKLPCFNGRVVSWLVSA [A30E]	-0.831 ± 0.14
GETKIIYHLDGQETPYLVKLPLPAERVTLADPKGVLQRPSYKFFFKSMDDDFGVVKEEISDDNAKLPCFNGRVVSWLVSA [F32P]	-0.686 ± 0.18
GETKIIYHLDGQETPYLVKLPLPAERVTLADIKGVLQRPSYKFFFKSMDDDFGVVKEEISDDNAKLPCFNGRVVSWLVSA [F32I]	-0.469 ± 0.16
GETKIIYHLDGQETPYLVKLPLPAERVTLADLKGVLQRPSYKFFFKSMDDDFGVVKEEISDDNAKLPCFNGRVVSWLVSA [F32L]	-0.337 ± 0.07
GETKIIYHLDGQETPYLVKLPLPAERVTLADGKGVLQRPSYKFFFKSMDDDFGVVKEEISDDNAKLPCFNGRVVSWLVSA [F32G]	-0.916 ± 0.1
GETKIIYHLDGQETPYLVKLPLPAERVTLADKKGVLQRPSYKFFFKSMDDDFGVVKEEISDDNAKLPCFNGRVVSWLVSA [F32K]	-1.01 ± 0.21

Variant	abundance fitness
GETKIIYHLDGQETPYLVKLPLPAERVTLADRKGVLQRPSYKFFFKSMDDDFGVVKEEISDDNAKLPCFNGRVVSWLVSA [F32R]	-0.543 ± 0.073
GETKIIYHLDGQETPYLVKLPLPAERVTLADHKGVLQRPSYKFFFKSMDDDFGVVKEEISDDNAKLPCFNGRVVSWLVSA [F32H]	-0.447 ± 0.23
GETKIIYHLDGQETPYLVKLPLPAERVTLADMKGVLQRPSYKFFFKSMDDDFGVVKEEISDDNAKLPCFNGRVVSWLVSA [F32M]	-0.624 ± 0.14
GETKIIYHLDGQETPYLVKLPLPAERVTLADDKGVLQRPSYKFFFKSMDDDFGVVKEEISDDNAKLPCFNGRVVSWLVSA [F32D]	-0.688 ± 0.23
GETKIIYHLDGQETPYLVKLPLPAERVTLADAKGVLQRPSYKFFFKSMDDDFGVVKEEISDDNAKLPCFNGRVVSWLVSA [F32A]	-0.622 ± 0.1
GETKIIYHLDGQETPYLVKLPLPAERVTLADQKGVLQRPSYKFFFKSMDDDFGVVKEEISDDNAKLPCFNGRVVSWLVSA [F32Q]	-0.855 ± 0.19
GETKIIYHLDGQETPYLVKLPLPAERVTLADTKGVLQRPSYKFFFKSMDDDFGVVKEEISDDNAKLPCFNGRVVSWLVSA [F32T]	-0.598 ± 0.13
GETKIIYHLDGQETPYLVKLPLPAERVTLADNKGVLQRPSYKFFFKSMDDDFGVVKEEISDDNAKLPCFNGRVVSWLVSA [F32N]	-1.28 ± 0.45
GETKIIYHLDGQETPYLVKLPLPAERVTLADEKGVLQRPSYKFFFKSMDDDFGVVKEEISDDNAKLPCFNGRVVSWLVSA [F32E]	-0.649 ± 0.11
GETKIIYHLDGQETPYLVKLPLPAERVVLADFKGVLQRPSYKFFFKSMDDDFGVVKEEISDDNAKLPCFNGRVVSWLVSA [T28V]	-0.574 ± 0.073
GETKIIYHLDGQETPYLVKLPLPAERVWLADFKGVLQRPSYKFFFKSMDDDFGVVKEEISDDNAKLPCFNGRVVSWLVSA [T28W]	-0.851 ± 0.12
GETKIIYHLDGQETPYLVKLPLPAERVRLADFKGVLQRPSYKFFFKSMDDDFGVVKEEISDDNAKLPCFNGRVVSWLVSA [T28R]	-0.379 ± 0.053
GETKIIYHLDGQETPYLVKLPLPAERVSLADFKGVLQRPSYKFFFKSMDDDFGVVKEEISDDNAKLPCFNGRVVSWLVSA [T28S]	-0.757 ± 0.099
GETKIIYHLDGQETPYLVKLPLPAERVTLARFKGVLQRPSYKFFFKSMDDDFGVVKEEISDDNAKLPCFNGRVVSWLVSA [D31R]	-0.711 ± 0.093
GETKIIYHLDGQETPYLVKLPLPAERVTLAGFKGVLQRPSYKFFFKSMDDDFGVVKEEISDDNAKLPCFNGRVVSWLVSA [D31G]	-0.776 ± 0.1
GETKIIYHLDGQETPYLVKLPLPAERVTLAEFKGVLQRPSYKFFFKSMDDDFGVVKEEISDDNAKLPCFNGRVVSWLVSA [D31E]	-0.178 ± 0.081
GETKIIYHLDGQETPYLVKLPLPAERVTLAQFKGVLQRPSYKFFFKSMDDDFGVVKEEISDDNAKLPCFNGRVVSWLVSA [D31Q]	-0.634 ± 0.17
GETKIIYHLDGQETPYLVKLPLPAERVTLAIFKGVLQRPSYKFFFKSMDDDFGVVKEEISDDNAKLPCFNGRVVSWLVSA [D31I]	-0.173 ± 0.13
GETKIIYHLDGQETPYLVKLPLPAERVTLATFKGVLQRPSYKFFFKSMDDDFGVVKEEISDDNAKLPCFNGRVVSWLVSA [D31T]	-0.217 ± 0.087
GETKIIYHLDGQETPYLVKLPLPAERVTLAVFKGVLQRPSYKFFFKSMDDDFGVVKEEISDDNAKLPCFNGRVVSWLVSA [D31V]	-0.448 ± 0.086
GETKIIYHLDGQETPYLVKLPLPAERVTLAFFKGVLQRPSYKFFFKSMDDDFGVVKEEISDDNAKLPCFNGRVVSWLVSA [D31F]	-0.742 ± 0.24
GETKIIYHLDGQETPYLVKLPLPAERVTLAMFKGVLQRPSYKFFFKSMDDDFGVVKEEISDDNAKLPCFNGRVVSWLVSA [D31M]	-0.047 ± 0.091
GETKIIYHLDGQETPYLVKLPLPAERVTLACFKGVLQRPSYKFFFKSMDDDFGVVKEEISDDNAKLPCFNGRVVSWLVSA [D31C]	-0.359 ± 0.13

Variant	abundance fitness
GETKIIYHLDGQETPYLVKLPLPAERVTLANFKGVLQRPSYKFFFKSMDDDFGVVKEEISDDNAKLPCFNGRVVSWLVSA [D31N]	-0.665 ± 0.3
GETKIIYHLDGQETPYLVKLPLPAERVTLAWFKGVLQRPSYKFFFKSMDDDFGVVKEEISDDNAKLPCFNGRVVSWLVSA [D31W]	-0.618 ± 0.14
GETKIIYHLDGQETPYLVKLPLPAERVTLAPFKGVLQRPSYKFFFKSMDDDFGVVKEEISDDNAKLPCFNGRVVSWLVSA [D31P]	-0.35 ± 0.12
GETKIIYHLDGQETPYLVKLPLPAERVTLASFKGVLQRPSYKFFFKSMDDDFGVVKEEISDDNAKLPCFNGRVVSWLVSA [D31S]	-0.577 ± 0.11
GETKIIYHLDGQETPYLVKLPLPAERVTLAHFKGVLQRPSYKFFFKSMDDDFGVVKEEISDDNAKLPCFNGRVVSWLVSA [D31H]	0.282 ± 0.089
GETKIIYHLDGQETPYLVKLPLPAERVTLAYFKGVLQRPSYKFFFKSMDDDFGVVKEEISDDNAKLPCFNGRVVSWLVSA [D31Y]	-0.714 ± 0.2
GETKIIYHLDGQETPYLVKLPLPAERVTLALFKGVLQRPSYKFFFKSMDDDFGVVKEEISDDNAKLPCFNGRVVSWLVSA [D31L]	-0.791 ± 0.11
GETKIIYHLDGQETPYLVKLPLPAERVTLAAFKGVLQRPSYKFFFKSMDDDFGVVKEEISDDNAKLPCFNGRVVSWLVSA [D31A]	-0.099 ± 0.065
GETKIIYHLDGQETPYLVKLPLPAERVTDADFKGVLQRPSYKFFFKSMDDDFGVVKEEISDDNAKLPCFNGRVVSWLVSA [L29D]	-0.97 ± 0.21
GETKIIYHLDGQETPYLVKLPLPAERVTWADFKGVLQRPSYKFFFKSMDDDFGVVKEEISDDNAKLPCFNGRVVSWLVSA [L29W]	-0.783 ± 0.12
GETKIIYHLDGQETPYLVKLPLPAERVTNADFKGVLQRPSYKFFFKSMDDDFGVVKEEISDDNAKLPCFNGRVVSWLVSA [L29N]	-0.865 ± 0.22
GETKIIYHLDGQETPYLVKLPLPAERVTSADFKGVLQRPSYKFFFKSMDDDFGVVKEEISDDNAKLPCFNGRVVSWLVSA [L29S]	-0.498 ± 0.078
GETKIIYHLDGQETPYLVKLPLPAERVTAADFKGVLQRPSYKFFFKSMDDDFGVVKEEISDDNAKLPCFNGRVVSWLVSA [L29A]	-0.639 ± 0.089
GETKIIYHLDGQETPYLVKLPLPAERVTIADFKGVLQRPSYKFFFKSMDDDFGVVKEEISDDNAKLPCFNGRVVSWLVSA [L29I]	-0.675 ± 0.19
GETKIIYHLDGQETPYLVKLPLPAERVTGADFKGVLQRPSYKFFFKSMDDDFGVVKEEISDDNAKLPCFNGRVVSWLVSA [L29G]	-0.643 ± 0.065
GETKIIYHLDGQETPYLVKLPLPAERVTEADFKGVLQRPSYKFFFKSMDDDFGVVKEEISDDNAKLPCFNGRVVSWLVSA [L29E]	-0.782 ± 0.11
GETKIIYHLDGQETPYLVKLPLPAERVTHADFKGVLQRPSYKFFFKSMDDDFGVVKEEISDDNAKLPCFNGRVVSWLVSA [L29H]	-0.433 ± 0.14
GETKIIYHLDGQETPYLVKLPLPAERVTYADFKGVLQRPSYKFFFKSMDDDFGVVKEEISDDNAKLPCFNGRVVSWLVSA [L29Y]	-0.321 ± 0.16
GETKIIYHLDGQETPYLVKLPLPAERVTQADFKGVLQRPSYKFFFKSMDDDFGVVKEEISDDNAKLPCFNGRVVSWLVSA [L29Q]	-0.91 ± 0.15
GETKIIYHLDGQETPYLVKLPLPAERVTKADFKGVLQRPSYKFFFKSMDDDFGVVKEEISDDNAKLPCFNGRVVSWLVSA [L29K]	-0.917 ± 0.14
GETKIIYHLDGQETPYLVKLPLPAERVTTADFKGVLQRPSYKFFFKSMDDDFGVVKEEISDDNAKLPCFNGRVVSWLVSA [L29T]	-0.608 ± 0.098
GETKIIYHLDGQETPYLVKLPLPAERVTCADFKGVLQRPSYKFFFKSMDDDFGVVKEEISDDNAKLPCFNGRVVSWLVSA [L29C]	-0.287 ± 0.12
GETKIIYHLDGQETPYLVKLPLPAERVTMADFKGVLQRPSYKFFFKSMDDDFGVVKEEISDDNAKLPCFNGRVVSWLVSA [L29M]	-0.71 ± 0.15
